We go through four compounds from article PMC5727402, “Structure of the large terminase from a hyperthermophilic virus reveals a unique mechanism for oligomerization and ATP hydrolysis” (Nucleic Acids Research, 2017).

Where “and” joins values, the source holds several entries; their conditions need not be identical. Equal entries are not always repeated.

What is called ΔTm is the shift of the melting midpoint relative to a reference. What is called stoichiometry N is a count of units in the complex or per binding partner. In general, Km refers to the substrate concentration at which the rate is half of its maximum. For orientation: kcat means the number of substrate molecules converted per active site and unit of time at saturation.

In data set [1] the target is T1, full-length D6E large terminase (1–427) (synthetic construct, UniProt Z9WCS4P2M6).
T1 construct: full length residues 1-427; N-terminal His6-3C tag cleaved; codon-optimized synthetic gene, E. coli BL21-Gold(DE3); monomer by SEC, monomer to pentamer by AUC, active oligomer proposed pentameric
T1 sequence (Z9WCS4P2M6 4-430): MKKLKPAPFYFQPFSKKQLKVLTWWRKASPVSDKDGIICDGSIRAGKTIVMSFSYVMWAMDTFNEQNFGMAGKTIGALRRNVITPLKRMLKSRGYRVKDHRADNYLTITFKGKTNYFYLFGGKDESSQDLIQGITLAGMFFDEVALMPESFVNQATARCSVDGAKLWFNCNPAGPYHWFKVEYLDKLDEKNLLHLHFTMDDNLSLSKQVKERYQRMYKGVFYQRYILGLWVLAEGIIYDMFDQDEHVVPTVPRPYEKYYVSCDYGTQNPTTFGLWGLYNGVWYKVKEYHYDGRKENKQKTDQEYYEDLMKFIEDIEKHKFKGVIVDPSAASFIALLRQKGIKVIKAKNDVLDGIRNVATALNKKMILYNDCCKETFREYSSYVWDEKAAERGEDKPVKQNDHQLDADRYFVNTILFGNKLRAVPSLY
The data set is described as follows: thermal shift assay (SYPRO Orange). It is filed as binding. The settings on record: 5 mM nucleotide, 5 mM MgCl2, 5 mM HEPES pH 7.5, 5 mM potassium glutamate, 5 μM protein.

Data set [2] addresses D6E large terminase ATPase domain (1–234) (Geobacillus stearothermophilus bacteriophage D6E). The data set is described as follows: SEC; ATPase domain alone (Supplementary Figure S1C); conditions not shown. For orientation: Size exclusion chromatography separates by hydrodynamic size, large species first.
The subject of data set [3] is Nc1ncnc2c1ncn2[C@@H]1O[C@H](COP(=O)(O)OP(=O)(O)OP(=O)(O)O)[C@@H](O)[C@H]1O. The data set is described as follows: purified protein. The settings on record: 10 mM HEPES pH 7.5, 50 mM potassium glutamate, 10 mM MgCl2, room temperature, 4.5 μM protein.

Regarding `Nc1ncnc2c1ncn2[C@@H]1O[C@H](COP(=O)(O)OP(=O)(O)O)[C@@H](O)[C@H]1O` [ADP], the ΔTm in data set [1] came out at 2.3 °C.
The same measure, in the same setting: the result for `Nc1ncnc2c1ncn2[C@@H]1O[C@H](COP(=O)(O)OP(=O)(O)OP(O)(O)=S)[C@@H](O)[C@H]1O` [ATP-γ-S] reads 7.8 °C.
In the case of “D6E large terminase ATPase domain (1–234) (domain or fragment)”, the stoichiometry N in data set [2] was 4 and 5.
As to “C-terminally truncated protein (1–417) (synthetic construct)”, in data set [3], the Km amounted to 196.72 ± 8.0 µM and the kcat was determined as 0.0583 ± 0.00067 s⁻¹.
